These results are taken from patent US20250277057A1 (OKLAHOMA MEDICAL RESEARCH FOUNDATION, published 2025).

B1: HAPC-14-1 (antibody, V domains shown)
VH: EVQLVESGGGLVQPGGSLRLSCAASGFTFSFYYLNWVRQAPGKGLEWVGDIRLKSNNYEKHYAESVKGRFTISRDDSKSITYLQMNSLRAEDTAVYYCAREGDYFDYWGQGTTVTVSS
VL: DIQLTQSPSSLSASVGDRVTITCRASESVDSFGATFMHWYQQKPGKAPKLLIYLASWLGSGVPSRFSGSGSGTDFTLTISSLQPEDFATYYCQQNNEDPYTFGQGTKLEIK
notes: Whole IgG, backbone hIgG1; also called HPAC14-1
B2: HAPC-14-8 (antibody, V domains shown)
VH: B1 VH with S55K, Y104T
VL: B1 VL with W57R, Q93V
notes: Whole IgG, backbone hIgG1; also called HPAC 14-8
B3: HAPC-14-4 (antibody, V domains shown)
VH: B1 VH
VL: B1 VL with W57R, Q93V
notes: Whole IgG, backbone hIgG1; also called HPAC 14-4
B4: HAPC-14-5 (antibody, V domains shown)
VH: B1 VH with S55K
VL: B1 VL with Q93V
notes: Whole IgG, backbone hIgG1; also called HPAC 14-5
B5: HAPC-14-2 (antibody, V domains shown)
VH: B1 VH with S55K
VL: B1 VL with G59E, Q93V
notes: Whole IgG, backbone hIgG1; also called HPAC 14-2
B6: HAPC-14-R1-2L4-B2 (Fab, V domains shown)
VH: B1 VH with F31N
VL: B1 VL with G59E
notes: Single-site mutant Fab of HAPC-14
B7: HAPC-14-R1-2L4-D4 (Fab, V domains shown)
VH: B1 VH with F31N
VL: B1 VL with W57R, G59E
notes: as for B6
B8: HAPC-14-R1-3H4-C6 (Fab, V domains shown)
VH: B1 VH with F31N, Y104T
VL: B1 VL with W57N, G59E
notes: as for B6
B9: HAPC-14-R1-3L1-G8 (Fab, V domains shown)
VH: B1 VH with F31N
VL: B1 VL with W57N, G59E, Q93V
notes: as for B6
B10: HAPC-14-R1-2L4-G9 (Fab, V domains shown)
VH: B1 VH with F31N
VL: B1 VL with W57K, G59E
notes: Single-site mutant Fab of HAPC-14; inferred from the clone name (2L4, same site as N57R/W)
B11: HAPC-14-R1-2L6-F2 (Fab, V domains shown)
VH: B1 VH with F31N
VL: B1 VL with W57N, G59K
notes: Single-site mutant Fab of HAPC-14; inferred from the clone name (2L6, same site as E59G/P)
B12: HAPC-14-R1-2L6-G1 (Fab, V domains shown)
VH: B1 VH with F31N
VL: B1 VL with W57N
notes: as for B6
B13: HAPC-14-R1-3H4-C5 (Fab, V domains shown)
VH: B1 VH with F31N, Y104S
VL: B1 VL with W57N, G59E
notes: Single-site mutant Fab of HAPC-14; inferred from the clone name (3H4 = VH CDR3, 4th residue, same site as Y104T)
B14: HAPC-14-R1-3H7-F2 (Fab, V domains shown)
VH: B1 VH with F31N, Y107P
VL: B1 VL with W57N, G59E
notes: Single-site mutant Fab of HAPC-14; inferred from the clone name (3H7 = VH CDR3, 7th residue)
B15: HAPC-14-R1-3L1-D11 (Fab, V domains shown)
VH: B1 VH with F31N
VL: B1 VL with W57N, G59E, Q93W
notes: Single-site mutant Fab of HAPC-14; inferred from the clone name (3L1, same site as Q93V)

Numbering of substitutions follows the chain as printed. Numbers in names are those of the source.

For the first assay, the target named is T1, human activated protein C (human, UniProt P04070 43-197; P04070 212-461).
T1 construct: In the plasma assays aPC is generated in human plasma with Protac; also called aPC; haPC
Briefly: ELISA, plate coated with haPC 1 ug/mL, anti-hIgG-Fc-HRP. The method, then:
(§1) The binding abilities of the anti-aPC monoclonal antibodies to haPC/hPC were assayed by Elisa. […] 1. ELISA plates were coated with haPC/hPC (1 ug/mL in PBS), 100 μL/well, at 4° C. overnight. […] 2. The plates were washed 3 times with PBST (0.1% Tween 20), 200 μL/well. […] 3. The plates were blocked with 2% BSA (PBS solution), 200 μL/well, at room temperature for 1 hour. […] 4. The plates were washed 3 times with PBST (0.1% Tween 20), 200 μL/well. […] 5. The plates were incubated with anti-aPC monoclonal antibody as primary antibody (diluted from 10 μg/mL in 2% BSA), 100 μL/well, at room temperature for 1 hour. […] 6. The plates were washed 3 times with PBST (0.1% Tween 20), 200 μL/well. [0200] 7. The plates were incubated with anti-hIgG-Fc antibody-HRP (diluted 5000-fold in 2% BSA buffer) at room temperature for 1 hour. [0201] 8. The plates were washed 6 times with PBST (0.1% Tween 20), 200 μL/well. [0202] 9. The plates were incubated with a TMB substrate (prepared from solutions A and B at 1:1 (v/v)), 100 μL/well, away from light for 10 minutes. […] 10. The reaction was quenched with HCl (1 M), 100 μL/well, and OD450 was read.
(In general: ELISA stands for enzyme-linked immunosorbent assay.)
Consider B1, for which the EC50 – broadly, the concentration that produces a half-maximal response – is 0.114 nM and the Span is 2.11.
Taken in the same sequence, the figures for B2 were 0.138 nM and 1.05.
Consider B3, for which the response was half-maximal at 0.0605 nM (EC50) and the Span was found to be 1.52.
B4 gave a concentration giving a half-maximal response (EC50) of 0.0924 nM and a Span of 1.63.
With B5, the EC50 is 0.111 nM and the Span stood at 1.77.

Another assay has as its target T2, human protein C (human, UniProt P04070 43-461).
T2 construct: Zymogen form, coated on ELISA plates; also called hPC; PC
Briefly: ELISA, plate coated with hPC 1 ug/mL, anti-hIgG-Fc-HRP. The method, then:
as §1
On to B1, for which the Span is 0.023.
The molecule B2 displayed a Span of -0.00465.
For the molecule B3, the Span was 0.157.
As for B4, the Span is around 0.0475.
B5 came in with a Span of 0.0104.

For a further assay, the target named is T1, human activated protein C. Briefly: Octet BLI, antibody on Protein A sensor, huAPC 3.13-50 nM, 1:1 model, 25 C, pH 7.4. Here is the method:
Assay method: Octet analysis was carried out at 25° C. using a Protein A Octet biosensor in 1× Kinetics buffer. During the kinetics assay, the baseline step assay was run in 1× Kinetics buffer for 120 seconds, and then run for 240 seconds after the antibody was loaded to the biosensor. Next, the baseline 2 step assay was run in 1× Kinetics buffer for 120 seconds. […] The 1× Kinetics buffer was used as a blank control to show the natural dissociation of the antibody in the buffer. 10 mM glycine at pH 1.5 was used for the regeneration step. Octet data analysis software was used to calculate binding kinetics, and a 1:1 binding model was used for curve fitting.
The affinities of the mutant antibodies were assayed at pH 7.4.
In general terms: BLI is a label-free optical method that tracks binding on a fibre tip over time.
For the molecule B1, the Kd (usually the free concentration of one partner at which half of the binding sites on the other are occupied at equilibrium, for simple one-to-one binding) was 3.83 nM; the koff – broadly, the first-order rate constant of dissociation – is 0.00117 s⁻¹; the kon (as a rule, the rate constant with which the complex forms) came to 306000 M⁻¹ s⁻¹.
B2: the Kd stood at 10.5 nM, the koff came to 0.00262 s⁻¹ and the kon amounted to 250000 M⁻¹ s⁻¹.
In the case of B3, the Kd worked out at 4.06 nM, the koff turned out to be 0.00126 s⁻¹ and the on-rate constant (kon) amounted to 310000 M⁻¹ s⁻¹.
With B4, the Kd was 2.83 nM, the koff is 0.000911 s⁻¹ and the kon amounted to 322000 M⁻¹ s⁻¹.
B5 gave a Kd of 3.78 nM, an off-rate constant (koff) of 0.00116 s⁻¹ and an on-rate (kon) of 307000 M⁻¹ s⁻¹.

The next assay has as its target T1, human activated protein C. Briefly: cell-based or functional assay.
With B1, the “Mean clotting time (s), FIX-deficient plasma, APC-antibody concentration 0.5 ug/ml” value amounted to 219 s; the “Mean clotting time (s), FIX-deficient plasma, APC-antibody concentration 1 ug/ml” value is 195 s; the “Mean clotting time (s), FIX-deficient plasma, APC-antibody concentration 5 ug/ml” value stood at 171 s; the “Mean clotting time (s), FVIII-deficient plasma, APC-antibody concentration 0.5 ug/ml” value turned out to be 327 s. Also, the “Mean clotting time (s), FVIII-deficient plasma, APC-antibody concentration 1 ug/ml” value worked out at 222 s and the “Mean clotting time (s), FVIII-deficient plasma, APC-antibody concentration 5 ug/ml” value was 166 s.
Turning to B2, the “Mean clotting time (s), FIX-deficient plasma, APC-antibody concentration 0.05 ug/ml” value amounted to 732 s; the “Mean clotting time (s), FIX-deficient plasma, APC-antibody concentration 0.1 ug/ml” value was found to be 392 s; the “Mean clotting time (s), FIX-deficient plasma, APC-antibody concentration 0.5 ug/ml” value is 276 s; the “Mean clotting time (s), FVIII-deficient plasma, APC-antibody concentration 0.05 ug/ml” value amounted to 316 s. Moreover, the “Mean clotting time (s), FVIII-deficient plasma, APC-antibody concentration 0.1 ug/ml” value was 252 s and the “Mean clotting time (s), FVIII-deficient plasma, APC-antibody concentration 0.5 ug/ml” value was found to be 190 s.
On to B3, for which the “Mean clotting time (s), FIX-deficient plasma, APC-antibody concentration 0.5 ug/ml” value was determined as 220 s; the “Mean clotting time (s), FIX-deficient plasma, APC-antibody concentration 1 ug/ml” value was 194 s; the “Mean clotting time (s), FIX-deficient plasma, APC-antibody concentration 5 ug/ml” value stood at 176 s; the “Mean clotting time (s), FVIII-deficient plasma, APC-antibody concentration 0.5 ug/ml” value was found to be 221 s. For the same molecule, the “Mean clotting time (s), FVIII-deficient plasma, APC-antibody concentration 1 ug/ml” value was 184 s and the “Mean clotting time (s), FVIII-deficient plasma, APC-antibody concentration 5 ug/ml” value is 158 s.
As for B4, the “Mean clotting time (s), FIX-deficient plasma, APC-antibody concentration 0.5 ug/ml” value was 197 s; the “Mean clotting time (s), FIX-deficient plasma, APC-antibody concentration 1 ug/ml” value was found to be 188 s; the “Mean clotting time (s), FIX-deficient plasma, APC-antibody concentration 5 ug/ml” value was 166 s; the “Mean clotting time (s), FVIII-deficient plasma, APC-antibody concentration 0.5 ug/ml” value was found to be 224 s. Moreover, the “Mean clotting time (s), FVIII-deficient plasma, APC-antibody concentration 1 ug/ml” value was 200 s and the “Mean clotting time (s), FVIII-deficient plasma, APC-antibody concentration 5 ug/ml” value was found to be 171 s.
Regarding B5, the “Mean clotting time (s), FIX-deficient plasma, APC-antibody concentration 0.5 ug/ml” value was 233 s; the “Mean clotting time (s), FIX-deficient plasma, APC-antibody concentration 1 ug/ml” value was found to be 211 s; the “Mean clotting time (s), FIX-deficient plasma, APC-antibody concentration 5 ug/ml” value was determined as 143 s; the “Mean clotting time (s), FVIII-deficient plasma, APC-antibody concentration 0.5 ug/ml” value is 358 s. Further, the “Mean clotting time (s), FVIII-deficient plasma, APC-antibody concentration 1 ug/ml” value was found to be 196 s and the “Mean clotting time (s), FVIII-deficient plasma, APC-antibody concentration 5 ug/ml” value was 159 s.

Another assay deals with T1, human activated protein C. Briefly: direct antigen coating ELISA (KD ELISA) of Fab periplasmic extract, anti-c-myc HRP. The method, then:
Each well of 96-well plates was coated with an anti-Fab antibody in a coating buffer PBS with pH 7.4 at 4° C. The next day, the plates were blocked with casein in PBS with pH 7.4 at 25° C. for 1 hour. Then, Fab PE was added to the plates, and incubated at 25° C. for 1 hour. After the plates were washed, biotinylated antigen was added to the wells and incubated at 25° C. for 1 hour. Then, the biotinylated antigen was incubated with an SA-horseradish peroxidase (HRP) conjugate at 25° C. for 1 hour. HRP activity was detected with a tetramethylbenzidine (TMB) substrate, and the reaction was quenched with 2M HCl. The plates were read at 450 nm. […] The binding-improved mutants with unique sequences of HAPC-14 were ranked by direct antigen coating ELISA.
Each well of 96-well plates was coated with hPro1. biotin in 1×PBS buffer with pH 7.4, and incubation was carried out overnight at 4° C. The next day, the plates were blocked with casein in 1×PBS buffer with pH 7.4 at 25° C. for 1 hour. Fab PE of each mutant diluted according to one concentration was added to the plates and incubated at 25° C. for 1 hour. Then the Fab PE was incubated with goat anti-c-myc HRP conjugated at 25° C. for 1 hour. HRP activity was detected with a tetramethylbenzidine (TMB) substrate, and the reaction was quenched with 2M HCl. OD values of each plate were read at 450 nm.
B6 came in with a Bmax of 0.662.
On the same count and under the same terms, the same measure for B7: 0.567; for B8: 0.325.
Turning to B9, the Bmax was 0.24.
B10 registered a Bmax of 0.287.
In turn, B11 showed a Bmax of 0.299.
Consider B12, for which the Bmax is 0.492.
Regarding B13, the Bmax worked out at 0.328.
As for B14, the Bmax turned out to be 0.193.
Consider B15, for which the Bmax is 0.261.

A further assay concerns the target T2, human protein C. Briefly: ELISA on plate-coated HPC, OD450. Here is the method: as §1
Regarding B1, the binding result is given as “no binding (tested: 10^2 nM)”.
As for B3, the binding result was “no binding (tested: 10^2 nM)”.
As for B4, the binding result was “no binding (tested: 10^2 nM)”.
Turning to B5, the binding result is “no binding (tested: 10^2 nM)”.
